Molecular target: chaperone receptors within native chloroplast membranes (dynamic TIRE)
Assay: total internal reflection ellipsometry (TIRE); dynamic: pea chloroplast membranes on Cr/Au slides; time course of Δ at 700 nm over 15 min at chaperone concentrations from 1 to 10 µg/ml in 100 mM Tris-HCl pH 8.0; 1/τ against concentration fitted to a line, KA = ka/kd

Hsp90-2 (At5g56030), full length, sequence (P55737 whole entry): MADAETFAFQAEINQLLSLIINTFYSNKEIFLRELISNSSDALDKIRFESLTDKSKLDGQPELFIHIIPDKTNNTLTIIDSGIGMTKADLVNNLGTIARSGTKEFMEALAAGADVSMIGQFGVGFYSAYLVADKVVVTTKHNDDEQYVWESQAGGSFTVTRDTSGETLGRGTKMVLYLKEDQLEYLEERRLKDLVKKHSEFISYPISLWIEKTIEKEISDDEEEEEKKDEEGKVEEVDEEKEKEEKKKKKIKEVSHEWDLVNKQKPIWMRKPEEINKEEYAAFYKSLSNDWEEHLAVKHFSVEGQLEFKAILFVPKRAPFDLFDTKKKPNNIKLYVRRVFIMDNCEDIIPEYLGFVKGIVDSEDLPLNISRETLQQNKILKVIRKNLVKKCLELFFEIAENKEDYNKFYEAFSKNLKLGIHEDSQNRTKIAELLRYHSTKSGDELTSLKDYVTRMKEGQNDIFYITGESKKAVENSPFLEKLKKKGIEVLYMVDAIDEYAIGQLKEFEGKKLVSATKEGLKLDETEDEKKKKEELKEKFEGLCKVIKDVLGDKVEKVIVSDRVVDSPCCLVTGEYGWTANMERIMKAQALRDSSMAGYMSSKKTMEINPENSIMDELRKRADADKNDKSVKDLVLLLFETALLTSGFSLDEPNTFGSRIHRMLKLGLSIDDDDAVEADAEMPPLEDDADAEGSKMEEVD
Hsp70-1 (At5g02500), full length, sequence (P22953 whole entry): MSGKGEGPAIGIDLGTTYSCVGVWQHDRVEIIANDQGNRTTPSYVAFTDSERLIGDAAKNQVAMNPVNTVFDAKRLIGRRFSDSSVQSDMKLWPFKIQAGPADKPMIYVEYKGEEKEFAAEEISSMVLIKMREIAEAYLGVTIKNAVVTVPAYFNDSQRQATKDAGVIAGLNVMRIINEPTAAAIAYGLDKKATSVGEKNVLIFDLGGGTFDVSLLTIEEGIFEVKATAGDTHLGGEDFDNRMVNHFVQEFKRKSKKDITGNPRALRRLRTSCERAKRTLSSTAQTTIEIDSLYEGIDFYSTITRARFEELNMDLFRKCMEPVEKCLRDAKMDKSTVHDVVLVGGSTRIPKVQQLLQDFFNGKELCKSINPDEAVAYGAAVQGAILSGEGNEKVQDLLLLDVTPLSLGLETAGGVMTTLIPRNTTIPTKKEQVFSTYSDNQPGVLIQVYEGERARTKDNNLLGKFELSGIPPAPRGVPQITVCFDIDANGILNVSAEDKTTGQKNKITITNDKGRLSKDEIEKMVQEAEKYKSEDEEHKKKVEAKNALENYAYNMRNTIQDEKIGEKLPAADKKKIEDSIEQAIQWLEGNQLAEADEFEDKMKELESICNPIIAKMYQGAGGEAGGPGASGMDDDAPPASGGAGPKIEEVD

With “Hsp70-1 (At5g02500), full length (from UniProt P22953 1-651) (natural protein)” the Ka was 9.15e+06 M⁻¹.
Substance “Hsp90-2 (At5g56030), full length (from UniProt P55737 1-699) (natural protein)” has a Ka of 8.74e+06 M⁻¹.

— paper PMC3315527
